The DeepSol protein solubility set

Experiment: soluble on expression in E. coli; label from the status in PepcDB or PDB records

Sequence | soluble on expression in E. coli
MIVLRDVAGSDESMYQALQSDLDLTDYLSRFCPYNSSVANYDTSKVCWFIIEEDTNCIGSIWLERDAQEPDTVILGIFISGKNSRGRGIGSYAIREAIRISKQRMPFRYVRLNVRRNNLRAIRCYEKCGFKVCGEGQKNAKNGAIIDYYRMIMKVED | soluble
MSLAKIVFCILDGLGDTTHTLPDGRKGTCLEMAKRPTLDAIAKAGTVGLNDSVSPGYPCGSDTAHLSLFGYPPFTYYNGRGAFEALGGGMDMEPGSIAFKSNFSTMYGECVKYRRCDRHFEVEGPILCKDLDGIKIPEFPEVKVSVVYATEHRCAVKILAPGLSDKIAGTDPIHDDLDLIKSYPLDDSPEAAYTAKVVNALSDTFRKALENHPINIERRKQGKEVANVILLRGPGMRLSCQPFGERHNIKAFLIAPTAIIAGLGISVGLPVIKVKGATGDMDSNFNAKAIAAAQELDGDKYDMGIIHMKGIDDAAHDGKIAVKTELIERADKAIHLLIEKLAELEEKNGDRFIVAVTADHSTSCTWKDHCFEPVPFIVAEVAKVAQELGIKHVDQSKKPELVPTDSVHEFTETAACKGSLGRFCGAQMMNLLFHFAGRKQEEGHHHHHH | soluble
MKRKVQVKNITIGEGRPKICVPIIGKNKKDIIKEAKELKDACLDIIEWRVDFFENVENIKEVKEVLYELRSYIHDIPLLFTFRSVVEGGEKLISRDYYTTLNKEISNTGLVDLIDVELFMGDEVIDEVVNFAHKKEVKVIISNHDFNKTPKKEEIVSRLCRMQELGADLPKIAVMPQNEKDVLVLLEATNEMFKIYADRPIITMSMSGMGVISRLCGEIFGSALTFGAAKSVSAPGQISFKELNSVLNLLHKSIN | not soluble
MAEQYSEINTDTLERVTEIFKALGDYNRIRIMELLSVSEASVGHISHQLNLSQSNVSHQLKLLKSVHLVKAKRQGQSMIYSLDDIHVATMLKQAIHHANHPKESGL | soluble
MKLNKLFDSKTVVFKKSDKYGKSDCCKTKCVEGQIEFGVKIPTDFPAFNRALVTFLKTQKNQLNVDLDSFVELYKAENLCYKTALKVVVASITFCETTPFTMKTEPQKNVEVAVKCDSEHTSLIKEYEV | not soluble
MKSLDDLDFDNRFARLGGAFSTEVLPDPIAEPRLVVASPAALALLDLPAETSDEALFAELFGGHKLWSEAEPRAMVYSGHQFGSYNPRLGDGRGLLLGEVINQAGEHWDLHLKGAGQTPYSRMGDGRAVLRSSIREFLASEALPALGIPSSRALCVIGSSTPVWREKKESAATLLRLAPSHVRFGHFEYFYYTRQHDQLKQLAAFVLEHHFADCNAAERPYAAMFRQVVERNAELIARWQAYGFCHGVMNTDNMSILGITFDYGPYAFLDDFDANHICNHSDDAGRYSFSNQVPIAHWNLAALAQALTPLVEVDELRASLDLFLPLYQAHYLDLMRRRLGLGVAAENDHALVQELLQRMQGSAVDYSLFFRRLGEETPERALASLRDDFVDREAFDRWAEAYRRRVEEEGGDQESRRRRMHAVNPLYVLRNYLAQQAIEAAEQGDYTEVRLLHQVLSRPFEEQPGMERFTRRPPDWGRHLEISCSS | not soluble
MSGSNTAISRRRLLQGAGAMWLLSVSQVSLAAVSQVVAVRVWPASSYTRVTVESNRQLKYKQFALSNPERVVVDIEDVNLNSVLKGMAAQIRADDPFIKSARVGQFDPQTVRMVFELKQNVKPQLFALAPVAGFKERLVMDLYPANAQDMQDPLLALLEDYNKGDLEKQVPPAQSGPQPGKAGRDRPIVIMLDPGHGGEDSGAVGKYKTREKDVVLQIARRLRSLIEKEGNMKVYMTRNEDIFIPLQVRVAKAQKQRADLFVSIHADAFTSRQPSGSSVFALSTKGATSTAAKYLAQTQNASDLIGGVSKSGDRYVDHTMFDMVQSLTIADSLKFGKAVLNKLGKINKLHKNQVEQAGFAVLKAPDIPSILVETAFISNVEEERKLKTATFQQEVAESILAGIKAYFADGATLARRG | soluble
MYKILRTEKSWIEGSAVEQVKKLASLKGVENVIGYPDLHPGKTPIGISIITKDVIYPHLIGNDIGCSISLFETSELKRKFKVEKVMKTLQNSDLKNEIKKDFNLGTIGGGNHFAEFTLVDKILDESETTNFDKNKVYLLVHSGSRGLGEEILRKYIDYYSCQNGLAVNSEGFNNYISDYKKAVVFAKENRQLIAKNLCQLLNLKAFDLKIEAIHNGLELREDYIIHRKGAATALNKYVVIAGSRGDYSYIVKPINSSLETGFSIAHGAGRKWKRSGCKEKLQGKFSKKAIRNRSFSYNLICSNTNLVYEEAPEAYKNIDRVIDDLLSFNLIKVVARLKPLITYKDLEHHHHHH | not soluble
MKKTKVHLISGFLGTGKTTALKSLMAQKDPNEKWVIIVNEFGEIGIDGAVLSDNGIPVAEIAGGCLCCTAGPQMGVTVQKMLRDAKPDRLMIEASGLAHAASVIDELKTKPLDSLLEIGAVFTVVDPRQFINPDYAQQALYKDQIGICDVLVASKTDLCTPEQLAEFHDKAAKLFPPKAKVVEVQNAQLDIQWLDIPVIEKSRYRLKALPDNTMGFQSQGFTFPAGRDFDGEKLTNFFNDLPNMTEGLVRAKGVFQVLGTWVWLNWVDGQWGANQVSWRRDSRFELIAKSFDADLIEQKLKDALELEHHHHHH | not soluble
MGSDKIHHHHHHMDKLQRISEAIKSKKKLVVMFSGGVDSTLLAKLAREVLGKNAVALTIDSPVIPRKEIEEAKNLANLIGIRHEFIELNELKSRHLIENPPDRCYLCRKLRDNIVKNWARENGFDVIADGLNFSDLQDYRPGVKASTEDGIWHPFIDFEVTKEEIREYSKKLGLPTWDKPAMACLCSRFPYGFGLNEERVRMVEKAENFLRELGFREVRVRFFPYKTAVVEVGRDEMELLMGKRTDIVLALQKIGFSFVTLDLEGFASGKLNRTIEGMSK | not soluble
MLPDSSVRLNKYISESGICSRREADRYIEQGNVFLNGKRATIGDQVKPGDIVKVNGQLIEPREAEDLVLIALNKPVGIVSTTEDGERDNIVDFVNHSKRVFPIGRLDKDSQGLIFLTNHGDLVNKILRAGNDHEKEYLVTVDKPITDEFIRGMGAGVPILGTVTKKCKVKKEAPFVFRITLVQGLNRQIRRMCEHFGYEVKKLERTRIMNVSLSGIPLGEWRDLTDDELIDLFKLIENSSSEAKPKAKAKPKTAGIKRPVVKMEKTAEKGGRPASNGKRFTSPGRKKKGR | not soluble
MPELPEVETSRRGIEPHLVGATILHAVVRNGRLRWPVSEEIYRLSDQPVLSVQRRAKYLLLELPEGWIIIHLGMSGSLRILPEELPPEKHDHVDLVMSNGKVLRYTDPRRFGAWLWTKELEGHNVLTHLGPEPLSDDFNGEYLHQKCAKKKTAIKPWLMDNKLVVGVGNIYASESLFAAGIHPDRLASSLSLAECELLARVIKAVLLRSIEQGGTTLKDFLQSDGKPGYFAQELQVYGRKGEPCRVCGTPIVATKHAQRATFYCRQCQK | not soluble
MGSDKIHHHHHHMERAMKILAHRGWWLEPVEKNSETAFRRAFENGFGVETDTRDQNGVLKIAHDMPVGDQVMDLDYFLDLHKSYAGSGTIAMNIKADGLHKALRASLEGAGITDLFCFDMAVPDAIGYLNNGFITYTRHSELEPLPPFYDKAQGVWLDAFYSDWITPDVIQKHLDAGKKVALVSPELHGRDHTAAWDVWGDLTGDDISICTDLPHLAAEKWG | not soluble
MGSDKIHHHHHHNRASAQTVSEKDATSTQAPVFLTYTVTKENETVEIVGQVTADTKKVTSKVSGDVLEIYVEEGDVVQVGQKIAKIDDTDYQISYLSALNSYKTSPTEINRLNLEKAKENLENTTVVSPVSGVVQAVNVDVGDRVSVGTSIVTIVETDTLRVEGSISEYDLKNVKEGMKAVFTFEQLGLTLTGKVKRISPVAETSGGVTVIPVEFSFDQTPPSLVIPGLTCDVEIIIKEATSSFFIPKEAVRQDQNGYYVMKQTPQGPQKVYVELGEELNDKIEIKKGVSEGDVLLLIPSQQEIQRLRTRQGLPMFGPGGGRAR | not soluble
GAMGNERRILEQKKHYFWLLLQRTYTKTGKPKPSTWDLASKELGESLEYKALGDEDNIRRQIFEDFKPE | soluble
MSLSKMEINKRALKENMALLACPICGEAFEFKEPQSFVCLEGHGFDIAKPGYVHLLKQAHKTKYDQALFESRKKVIASGFFEKLIERVTEIIAEKKKEQLVLYDAGCGEGSHLARVVSNLQATGVNVQAVGLDIAKEGVKQAARDYPGTSWTVADLANCPNQAETADVILNILSPSNYVEFKRLLKKDGFLLKVVPEANYLRELREFIYVDEKSSYSNESVTSRLAEKLSVEHVERVTYKAPIAKELFADFLEMTPLGWHIEADKKSELLGNPPEELTVDLQIIIANRAHLLEGHHHHHH | soluble
MGSDKIHHHHHHMLELRHLRTLIALRDAGSLVEAAERVHLTQSALSHQIKDLEERLGSPLFLRKTRPVTFTRAGERLLALAEQILPQIRMAERDLARLAGHEQGRLHMAIECHSCFQWLMPTIDHFRDHWPEVEVDIPSGYSFDALPSLARESLDLVITADPQPLAGIHYEPLFRYEGLLAVGKQHPLARRDWVTPEELARETLITYPVEHTRLDVFTQFLTPAGFTPAEVRTAELTIMMMQLVASGRGVCALPNWALTEYLERGYVRALHLGEQGVWSTLFAAIREESRDAPWMEDFLRTARETSFAVLAGIKPA | not soluble
MSLEYKVEDVSPVKKKVNVTVPVEEVDAALGAAIAMYRTSVNLDGFRKGKVPASIVENRFRKEIYAEATQDLVNVHINEIVTSLAVSPLSRIDFDGGELERGKEFSYTISFEVMPQFDLPDYEGFAVEQEKAVVDEKEVDEVIARIRRNMAELVPVAETRPGADGDVVVLDFAAFENGEPIEGVSAENFQLSLGEKQSLEDFENLVKTIPAGQEAEGPITFPDDFLNPDFAGKTVTMKVKVHAVKERRLPEIDDALAQKAGGFESMEKMRETVVTSYMQSREQLHKATAQKSMLDKLLKMVDFALPESMVDMYVGNLIEDMRVKMERQGRGLESLGKTPEQLREQVLPEAQQIARSQIFLLAAGRKEAVEVSEQEVDGQLQQLAMRSGQDFDTLKDYYVRNGLIFNLRDRLIADKAMDAIYAKANVTMVDPAPAEGHHHHHH | soluble
MLLLTPGPTPIPERVQKALLRPMRGHLDPEVLRVNRAIQERLAALFDPGEGALVAALAGSGSLGMEAGLANLDRGPVLVLVNGAFSQRVAEMAALHGLDPEVLDFPPGEPVDPEAVARALKRRRYRMVALVHGETSTGVLNPAEAIGALAKEAGALFFLDAVTTLGMLPFSMRAMGVDYAFTGSQKCLSAPPGLAPIAASLEARKAFTGKRGWYLDLARVAEHWERGGYHHTTPVLLHYALLEALDLVLEEGVAARERRAREVYAWVLEELKARGFRPYPKASPLPTVLVVRPPEGVDADRLVRALYAEGVAVAGGIGPTRGQVLRLGLMGEGARREAYQAFLKALDRALALA | soluble
SQFDILCKTPPKVLVRQFVERFERPSGEKIASCAAELTYLCWMITHNGTAIKRATFMSYNTIISNSLSFDIVNKSLQFKYKTQKATILEASLKKLIPAWEFTIIPYNGQKHQSDITDIVSSLQLQFESSEEADKGNSHSKKMLKALLSEGESIWEITEKILNSFEYTSRFTKTKTLYQFLFLATFINCGRFSDIKNVDPKSFKLVQNKYLGVIIQCLVTETKTSVSRHIYFFSARGRIDPLVYLDEFLRNSEPVLKRVNRTGNSSSNKQEYQLLKDNLVRSYNKALKKNAPYPIFAIKNGPKSHIGRHLMTSFLSMKGLTELTNVVGNFSDKRASAVARTTYTHQITAIPDHYFALVSRYYAYDPISKEMIALKDETNPIEEWQHIEQLKGSAEGSIRYPAWNGIISQEVLDYLSSYINRRIGHHHHHH | soluble
GPGSMHEDGQFLRAFLLRVLANDMQRMLATNTCATYFRNIPLEPEYDASGNRTNTPENVVMEKRLRVMDDISKLLRTYVERAEYAANKSKDINRRIYFTAEQIETGDYGALIGPRGLVHQQLEKETNCHIVLVGRGITNPLKDTNPNAASMALEDPHVRITATTEEDLQTAAERIEWILSDEPEAVEFRENNRRRMAQVDGRYDPRTWMTAAEKRKKAAAEKAAAAGGAAAGEDETKAEKGRKREREEAPVEEEDTELNEFLEDL | soluble
